The results in this text go back to patent publication US20050250692A1.

For orientation: Kd means the constant that tells how readily two partners part at equilibrium. Low readings indicate tighter binding, high ones weaker binding. One may read the IC50 as the concentration needed to halve the response being measured. Low values mean higher potency, high ones lower potency.

Assay [1] addresses acidic pH binding sites of Mv1Lu cells. The experiment in a line: Scatchard plot analysis of 125I-α2M* binding to Mv1Lu cells at pH 5.
Assay [2] has as its target acidic pH binding sites of MEF cells. The assay can be described thus: competition with 125I-α2M* binding to MEF cells at pH 5.5.
The target of assay [3] is acidic pH binding sites of PEA-13 cells. The assay can be described thus: competition with 125I-α2M* binding to PEA-13 cells at acidic pH.
Assay [4] deals with acidic pH binding sites of Mv1Lu cells. The experiment in a line: concentration dependence of 125I-α2M* binding to Mv1Lu cells at pH 5.

B1: α2M activated by methylamine (α2M*) (ligand, human, UniProt P01023 24-1474, looked up)
chain: SVSGKPQYMVLVPSLLHTETTEKGCVLLSYLNETVTVSASLESVRGNRSLFTDLEAENDVLHCVAFAVPKSSSNEEVMFLTVQVKGPTQEFKKRTTVMVKNEDSLVFVQTDKSIYKPGQTVKFRVVSMDENFHPLNELIPLVYIQDPKGNRIAQWQSFQLEGGLKQFSFPLSSEPFQGSYKVVVQKKSGGRTEHPFTVEEFVLPKFEVQVTVPKIITILEEEMNVSVCGLYTYGKPVPGHVTVSICRKYSDASDCHGEDSQAFCEKFSGQLNSHGCFYQQVKTKVFQLKRKEYEMKLHTEAQIQEEGTVVELTGRQSSEITRTITKLSFVKVDSHFRQGIPFFGQVRLVDGKGVPIPNKVIFIRGNEANYYSNATTDEHGLVQFSINTTNVMGTSLTVRVNYKDRSPCYGYQWVSEEHEEAHHTAYLVFSPSKSFVHLEPMSHELPCGHTQTVQAHYILNGGTLLGLKKLSFYYLIMAKGGIVRTGTHGLLVKQEDMKGHFSISIPVKSDIAPVARLLIYAVLPTGDVIGDSAKYDVENCLANKVDLSFSPSQSLPASHAHLRVTAAPQSVCALRAVDQSVLLMKPDAELSASSVYNLLPEKDLTGFPGPLNDQDNEDCINRHNVYINGITYTPVSSTNEKDMYSFLEDMGLKAFTNSKIRKPKMCPQLQQYEMHGPEGLRVGFYESDVMGRGHARLVHVEEPHTETVRKYFPETWIWDLVVVNSAGVAEVGVTVPDTITEWKAGAFCLSEDAGLGISSTASLRAFQPFFVELTMPYSVIRGEAFTLKATVLNYLPKCIRVSVQLEASPAFLAVPVEKEQAPHCICANGRQTVSWAVTPKSLGNVNFTVSAEALESQELCGTEVPSVPEHGRKDTVIKPLLVEPEGLEKETTFNSLLCPSGGEVSEELSLKLPPNVVEESARASVSVLGDILGSAMQNTQNLLQMPYGCGEQNMVLFAPNIYVLDYLNETQQLTPEIKSKAIGYLNTGYQRQLNYKHYDGSYSTFGERYGRNQGNTWLTAFVLKTFAQARAYIFIDEAHITQALIWLSQRQKDNGCFRSSGSLLNNAIKGGVEDEVTLSAYITIALLEIPLTVTHPVVRNALFCLESAWKTAQEGDHGSHVYTKALLAYAFALAGNQDKRKEVLKSLNEEAVKKDNSVHWERPQKPKAPVGHFYEPQAPSAEVEMTSYVLLAYLTAQPAPTSEDLTSATNIVKWITKQQNAQGGFSSTQDTVVALHALSKYGAATFTRTGKAAQVTIQSSGTFSSKFQVDNNNRLLLQQVSLPELPGEYSMKVTGEGCVYLQTSLKYNILPEKEEFPFALGVQTLPQTCDEPKAHTSFQISLSVSYTGSRSASNMAIVDVKMVSGFIPLKPTVKMLERSNHVSRTEVSSNHVLIYLDKVSNQTLSLFFTVLQDVPVRDLKPAIVKVYDYYETDEFAIAEYNAPCSKDLGNA
modifications: activated by methylamine; 125I-labelled where used as tracer
As to B1, in assay [1], the Kd amounted to 51 nM and the sites/cell is 1e+06 sites/cell. In addition, in assay [2], the IC50 amounted to 50 nM. The IC50 in assay [3] worked out at 120 nM. In assay [4], this molecule registered a saturating concentration of 120 nM.
